Experimental data reported in the nanobody polyreactivity screen of Harvey et al. (2022).

test: yeast display, Sf9 membrane polyspecificity reagent, FACS + sequencing; frameworks hold sequencing errors
Summary of the method: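 Galactose induction of a Saccharomyces cerevisiae BJ5465 synthetic nanobody display library ran 36–48 hours. The cells were then stained for 1 hour at 4 °C with 10% biotinylated, detergent-solubilized Sf9 membrane reagent, pulled down on streptavidin microbeads and FACS-sorted into low and high (top ~1%) gates on expression and reagent-binding fluorescence. Labels for polyreactivity follow the gate of origin.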

Sequence	polyreactivity (PSR sort gate)
QVQLVESGGGLVQAGGSLRLSCAASGNTFREYTMGWYRQAPGKERELVAGISGSGGRTYYADSVKGRFTISRDNAKNTVYLQMNSLKPEDTAVYYCYARWYYGIGYNYWGQGTQVTVSS	high polyreactivity
QVQLVESGGGLVQAGGSLRLSCAASGNTFRLYAMGWYRQAPGKERELVATITSGVSTNYADSVKGRFTISRDNAKNTVYLQMNSLKPEDTAVYYCAARHYYTYSSGFGRYIYTEYYWGQGTQVTVSS	low polyreactivity
QVQLVESGGGLVQAGGSLRLSCAASGNTFRRNVMGWYRQAPGKERELVAAINRGGSTTYADSVKGRFTISRDNAKNTVYLQMNSLKAEDTAVYYCNARTLFKWRHGHYYAYDYWGQGTQVTVSS	high polyreactivity
QVQLVESGGGLVQAGGSLRLSCAASGNTFRSYAMGWYRQAPGKERELVAAISGRGGSTYYADSVKGRFTISRDNAKNTVDLQMNSRKPEDTAVYYCAAESRRVNYANDYWGQGTQVTVSS	high polyreactivity
QVQLVESGGGLVQAGGSLRLSCAASGNTFRSYVMGWYRPAPGKARELVADISSGDGTNYADSVKGRFTISRDTAKNTVYLQMNSLKPEDTAVYYCAKDVYNFRSTHSYFTGYVSWGQGTQVTVSW	low polyreactivity
QVQLVESGGGLVQAGGSLRLSCAASGNTFRSYVMGWYRQAPGKERELVAVITKSGGSTYYADSVKGRFTISRDNAKNTVYLQMNSLKPEDTAVYYCAADRPAYGVGYWGQGTQVTVSS	high polyreactivity
QVQLVESGGGLVQAGGSLRLSCAASGNTFRWYDMGGYRQAPGKERELVAAITSSGSTTYYADSVKGRFTISRDNAKNTVYLQMNSLKPEDTAVYYCAAEDHYEGYGGYYWGHGTQVTVSS	low polyreactivity
QVQLVESGGGLVQAGGSLRLSCAASGNTFRYNAMGWYRQAPWKERELVAAISRRGGSTYYADSVKGRFTISRDNAKNTVYLQMNSLKPEDTAVYYCNAGRTAENEYWGQGTQVTVSS	high polyreactivity
QVQLVESGGGLVQAGGSLRLSCAASGNTFRYNTMGWYRQAPGKERELVAVITRRGSSTYYADSVKGRFTISRDNAKNTVYLQMNSLKPEDTAVYYCAAAPYYVTLVTRRDYWGQGTQVTVSS	high polyreactivity
QVQLVESGGGLVQAGGSLRLSCAASGNTFRYYAMGWYRQAPGKERELVAAISRNGGSTYADSVKGRFTISRDNAKNTVYLQMNSLKPEDTAVYYCNAYRIRPGTPYGKGYYYWGQGTQVTVSS	high polyreactivity
QVQLVESGGGLVQAGGSLRLSCAASGNTFSNYAMGWYRQAPGKEREFVAAIRKSGASTYYADSVKGRFTISRDNAKNSVYLQMNSLKPEDTAVYYCAADGQVSFALGFDYWGQGTQVTVSS	high polyreactivity
QVQLVESGGGLVQAGGSLRLSCAASGNTFSPYAMGWYRQAPGKERELVAAITFRGGSTYYADSVKGRFTISRDNAKNTVYLQMNSLKPEDTAVYYCNAERGGWSGYFGYDYWGQGTQVTVSS	low polyreactivity
QVQLVESGGGLVQAGGSLRLSCAASGNTFSSYAMGWYRQAPGKERELVAAISRRGGSTYYADSVKGRFTISRDNAKNTVYLQMNSLKPEDTAVYYCAADGTGFRYLRYDYWGQGTQVTVSS	high polyreactivity
QVQLVESGGGLVQAGGSLRLSCAASGNTFSYYAMGWYRQAPGKERELVAAISWRGGSTYYADSVKGRFTISRDNAKNTVYLQMNSLKPEDTAVYYCAADLYWASLWYVGAAYGYEYWGQGTQVTVSS	low polyreactivity
QVQLVESGGGLVQAGGSLRLSCAASGNTFTAYAMGWYRQAPGKERELVAAISSSGRTNYADSVKGRFTISRDNAKNTVYLQMNSLKPEDTAVYYCAAYRLSKPFYKYDYWGEGTQVTVSS	high polyreactivity
QVQLVESGGGLVQAGGSLRLSCAASGNTFTTYAMGWYRQAPGKERELVAVISRSGGRTYYADSVKGRFTISRDNAKNTVYLQMNSLKPEDTAVYYCATRTYATSEYGYWGQGTQVTVSS	high polyreactivity
QVQLVESGGGLVQAGGSLRLSCAASGNTFTWYTIGWYRQAPGKERELVAVITSDGSTYYADSVKGRFTISRDNAKNTVYLQMNSLKPEDTAVYYCNALSADWYPEVDYWGQGTQVTVSS	low polyreactivity
QVQLVESGGGLVQAGGSLRLSCAASGNTFTWYTMGWYRQAPGKERELVAVITSDGSTYYADSVKGRFTISRDNAKNTVDLQMNSLKPEDTAVYYCNALSADWYPEEDYWGQGTQVTVSS	low polyreactivity
QVQLVESGGGLVQAGGSLRLSCAASGNTFTWYTMGWYRQAPGKERELVAVITSDGSTYYADSVKGRFTISRDNAKNTVYLQMNSLKPEDTAGYYCNALSADWYPEEDFWGQGTQVTVSS	low polyreactivity
QVQLVESGGGLVQAGGSLRLSCAASGNTFTWYTMGWYRQAPGKERELVAVITSDGSTYYADSVKGRFTISRDNAKNTVYLQMNSLKPEDTAVYYCNARYLRLRYPYTDEYNYWGQGTQVTVSS	low polyreactivity
QVQLVESGGGLVQAGGSLRLSCAASGNTFVGYTMGWYRQAPGKEWELVAAISWNGGTTYYADSVKGRFTISRDNAKNTVYLQMNSLKPEDTAVYYCNTRWYTRRFDYWGQGTQVTVSS	high polyreactivity
QVQLVESGGGLVQAGGSLRLSCAASGNTFVSNAMGWYRPAPGKERELVAAINSGGSTNYADSVKGRFTISRDNAKNTVYLQMNSLKPEDTAVYYCNKYYDYPQRYWMDYWGQGTQVTVSS	low polyreactivity

Sequence	polyreactivity (PSR sort gate)
QVQLVESGGGLVQAGGSLRLSCAASGNTFVSNAMGWYRQAPGKERELVAAIDSGGSTNYADSVKGRFTISRDNEKNTVYLQMKSLKPEDTAVYYCNRTSVYYYYWGQGTQVTVSS	low polyreactivity
QVQLVESGGGLVQAGGSLRLSCAASGNTFVYNAMGWYRQAPGKERELVAGLTKTGGRTYYADSVKGRVTISRDNAKNTVYLQMNSLKPEETAVYYCAARPWNDGYYVGRFHMDYWGQGTQVTVSS	low polyreactivity
QVQLVESGGGLVQAGGSLRLSCAASGNTFVYNDMGWYRQAPGKERELVADIRYSGSTYYADSVKGRFTISRDNAKNTVYLQMNSLKPEDTAVYYCAKAYYVLSWMGYWGQGTQVTVSS	low polyreactivity
QVQLVESGGGLVQAGGSLRLSCAASGNTFWYYAMGWYRQAPGKERELVAAISWDGGITYYADSVKGRFTISRDNAKNTVYLQMNSLKPEDTAVYYCAAETNPKYRYTLDKYEYWGQGTQVTVSS	high polyreactivity
QVQLVESGGGLVQAGGSLRLSCAASGNTFYGYAMGWYRQAPGKERELVASITLSGDSTYYADSVKGRFTISRDNAKNTVYLQMNSLKPEDTAVYYCGGVYTYPLGYYHYTYDYWGQGPQVTVSS	low polyreactivity
QVQLVESGGGLVQAGGSLRLSCAASGNTFYGYAMGWYRQAPGKERELVASITLSGDSTYYADSVKGRFTISRDNAKNTVYLQMNSLNPEETAVYYFNAQFTPRYWGGYDSWGQGTQVTVSS	low polyreactivity
QVQLVESGGGLVQAGGSLRLSCAASGNTFYGYAMGWYRQAPGKERELVASSTLSGDSTYYADSVKGRFTISRDNAKNTVYLQMNSLKPEDTAVYYCAGVYTYPLGYYHYTYDYWGQGTQVTVSS	low polyreactivity
QVQLVESGGGLVQAGGSLRLSCAASGNTFYGYARGWYRQAPGKERELVASITLSGDSTYYADSVKGRFTISRDNAKNTVYLPMNSLKPEDTAVYYCNADWYFQYPYDYWGQGTQVTVSS	low polyreactivity
QVQLVESGGGLVQAGGSLRLSCAASGNTFYHYVMGWYRQAPGKESELVAAISRSGGSTYYADSVKGRFTISRDNAKNTVYLQMNSLKPEDTAVYYCAARTSIGLLYDYWGQGTQVTVSS	high polyreactivity
QVQLVESGGGLVQAGGSLRLSCAASGNTFYINTMGWYRQAPGKEREFVAAITWSGGPTYYADSVKGRFTISRDNAKNTVYLQMNSLKPEDTAVYYCAADSRGEDYYYWGQGTQVTVSS	high polyreactivity
QVQLVESGGGLVQAGGSLRLSCAASGNTFYKNTMGWYRQAPGKERELVAAISQRGTRTYYADSVKGRFTISRDNAKNSVYLQLYSLNPEDTAVYYCATDLSQVGFDYWGQGTQVTVSS	high polyreactivity
QVQLVESGGGLVQAGGSLRLSCAASGNTFYRNAMGWYRQAPGKERELVAGISNGGSTNYEDSVKGRFTISRDNAKNSVYLQMNSLKPEDTAVYYFAKDEPKVSRAFDYWGQGTQVNVSS	low polyreactivity
QVQLVESGGGLVQAGGSLRLSCAASGNTFYTYAMGWYRQAPGKERELVAAITSGGRTYADSVKGRFTISRDNAKNTVYLQMNSLKPEDTEVYYCAAEFPGFYYVYPGDYWGQGTQVTVSS	low polyreactivity
QVQLVESGGGLVQAGGSLRLSCAASGNTFYWYVMGWYRQAPGKERELVARITSSGGSTNYADSVKGRFTISRDNAKNTVYLQMNSLKPEDTAVYYCAADDIYLYGGGTDYYYWGQGTQVTVSS	low polyreactivity
QVQLVESGGGLVQAGGSLRLSCAASGNTIIRYAMGWYRQAPGKERELVAAISYSGGRTYYADSVKGRFTISRDNAKNTVYLQMNSLKPEDTAVYYCNAASRYGGDYWGQGTQVTVSS	low polyreactivity
QVQLVESGGGLVQAGGSLRLSCAASGNTIRVYAMGWYRQAPGKERELVAAITWSGSRTYYADSVKGRFTISRDNAKNTVYLQMNSLKPEDTAVYYCAARFVRPAYNYWGQGTQVTVSS	high polyreactivity
QVQLVESGGGLVQAGGSLRLSCAASGNTISYYAMGWYRQAPGKERELVAAISANGGSTYYADSVKGRFTISRDNAKNTVYLQMNSLKPEDTAVYYCNRRFLSRNQNEYDYWGQGTQVTVSS	high polyreactivity
QVQLVESGGGLVQAGGSLRLSCAASGNTLAANAMGWYRQAPGKERELVAAITYSGGSTYYADSVKGRFTISRDNSKNTVYLQMNSLKPLDTAVYYCAAEGYYSNYHYWGQGTQVTVSW	low polyreactivity
QVQLVESGGGLVQAGGSLRLSCAASGNTLDAYAMGWYRQAPGKERELVAAITSGGSTYYADSVKGRFTISRDNAKNTVYLQMNSLKPEDTAVYYCNADGHPSDPCYDYWGQGTQVTVSS	low polyreactivity
QVQLVESGGGLVQAGGSLRLSCAASGNTLDAYAMGWYRQAPGKERELVAAITSGGSTYYADSVKGRFTISRDNAKNTVYLQMNSLKPEDTAVYYCNADGHPSDPGYDYWGQGTQVTVSS	low polyreactivity
QVQLVESGGGLVQAGGSLRLSCAASGNTLDVNAMGWYRQAPWKERELVAAITSGGSTNYADSVKGRFTISRDNAKNTVYLQMNSLKPEDTAVYYCAKGSGVTYVNETLNTDYGYWGQGTQVTVSS	low polyreactivity
